The target of this assay is T1, MAGE-A4 (MA4-230) peptide on HLA-A*02:01 (human).
T1 peptide: GVYDGREHTV
Nature of the assay: multimer staining.

B1: MA4-230 H1 TCR (TCR, V domains shown)
Valpha: LAKTTQPISMDSYEGQEVNITCSHNNIATNDYITWYQQFPSQGPRFIIQGYKTKVTNEVASLFIPADRKSSTLSLPRVSLSDTAVYYCLVVEGNRDDKIIFGKGTRLHILP
Vbeta: NAGVTQTPKFRVLKTGQSMTLLCAQDMNHEYMYWYRQDPGMGLRLIHYSVGEGTTAKGEVPDGYNVSRLKKQNFLLGLESAAPSQTSVYFCASPPTPSSYNEQFFGPGTRLTVL
B1: the binding result is listed as “recognises”.
